These results are taken from patent US20220056147A1.

Test [1] deals with human MSLN on Oval-Citar-3-MSLN cells (human) (UniProt Q13421). As to the kind of experiment: cell ELISA on fixed Oval-Citar-3-MSLN cells, HRP anti-human IgG Fc detection.
Test [2] has the same target. Briefly: flow cytometry on fixed Oval-Citar-3-MSLN cells, FITC anti-human IgG Fc detection. A general note: A flow cytometer gives signals particle by particle.

human MSLN on Oval-Citar-3-MSLN cells (human), sequence (Q13421 other isoform, or with tags, fused parts or gaps limits assumed): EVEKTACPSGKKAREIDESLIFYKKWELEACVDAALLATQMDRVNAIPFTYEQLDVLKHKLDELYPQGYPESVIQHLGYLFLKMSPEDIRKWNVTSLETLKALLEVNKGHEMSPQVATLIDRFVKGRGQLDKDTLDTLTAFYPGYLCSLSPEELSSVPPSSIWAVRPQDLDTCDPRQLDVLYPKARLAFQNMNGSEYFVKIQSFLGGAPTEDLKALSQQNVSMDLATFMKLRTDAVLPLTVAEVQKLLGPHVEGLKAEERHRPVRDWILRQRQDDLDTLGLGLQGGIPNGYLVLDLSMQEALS

B1: RC88 antibody (antibody, human IgG1, kappa, V domains shown)
VH: EVQLVESGGGLVQPGGSLRLSCAASGFDFSRYWMSWVRQAPGKGLEWIGEINPDSSTIVYTPSLKDKFIISRDNAKNTLYLQMNSLRAEDTALYYCARRGSHYYGYRTGYFDVWGAGTTVTVSS
VL: DVVMTQSPAFLSVTPGEKVTMTCSASSSVSYMYWHQQKPDQAPKLLIYDTSNLASGVPVRFSGSGSGTDFTFTISRMEAEDAATYYCQQWSSYPPTFGGGTKVEIKR
As for B1, the concentration giving a half-maximal response (EC50) was determined as 0.011 mg/L in test [1] and 0.153 mg/L in test [2].

B2: RC88-Py-MAA-Val-Cit-PAB-MMAE (antibody, human IgG1, kappa, V domains shown)
VH: EVQLVESGGGLVQPGGSLRLSCAASGFDFSRYWMSWVRQAPGKGLEWIGEINPDSSTIVYTPSLKDKFIISRDNAKNTLYLQMNSLRAEDTALYYCARRGSHYYGYRTGYFDVWGAGTTVTVSS
VL: DVVMTQSPAFLSVTPGEKVTMTCSASSSVSYMYWHQQKPDQAPKLLIYDTSNLASGVPVRFSGSGSGTDFTFTISRMEAEDAATYYCQQWSSYPPTFGGGTKVEIKR
modifications: Py-MAA-Val-Cit-PAB-MMAE linker-drug coupled to cysteine thiols of reduced disulfide bonds (bridging linker); positions not given; DAR 3.95
With B2, the concentration giving a half-maximal response (EC50) is 0.0197 mg/L in test [1] and 0.251 mg/L in test [2].

What is called EC50 is the concentration giving half of the maximal effect. A low value points to a more potent agent.
